Source: patent publication US20210252057A1 (published 2021)

Key:
peptide on HLA-A*02:01 [1] = target: T1, peptide on HLA-A*02:01 (human); experiment: cytokine release
T1 peptide: KLLEIAANC

[2] = target: T2, MCPyV T antigen homolog (C9A of …) peptide on HLA-A*02:01 (human); experiment: cytokine release
T2 peptide: KLLEIAPNA

[3] = target: T3, MCPyV Large-T sequence variant peptide on HLA-A*02:01 (human); experiment: cytokine release
T3 peptide: KLLEISPNC

[4] = target: T4, MCPyV Large-T sequence variant peptide on HLA-A*02:01 (human); experiment: cytokine release
T4 peptide: KLLEITPNC

peptide on HLA-A*02:01 [5] = target: T5, peptide on HLA-A*02:01 (human); experiment: cytokine release
T5 peptide: KALEIAPNC

[6] = target: T6, Merkel cell polyomavirus (MCPyV) T antigen (Large-T antigen) peptide on HLA-A*02:01 (human); experiment: multimer staining
T6 peptide: KLLEIAPNC

[7] = target: T6, Merkel cell polyomavirus (MCPyV) T …; experiment: killing
peptide on HLA-A*02:01 [8] = target: T7, peptide on HLA-A*02:01 (human); experiment: cytokine release
T7 peptide: ALLEIAPNC

Measured: binding result

B1: TCR1007 (TCR, V domains shown)
Valpha: QQQVKQSPQSLIVQKGGISIINCAYENTAFDYFPWYQQFPGKGPALLIAIRPDVSEKKEGRFTISFNKSAKQFSLHIMDSQPGDSATYFCAVPNTGNQFYFGTGTSLTVIP
Vbeta: GAGVSQSPRYKVAKRGQDVALRCDPISGHVSLFWYQQALGQGPEFLTYFQNEAQLDKSGLPSDRFFAERPEGSVSTLKIQRTQQEDSAVYLCASSLIAGLSYEQYFGPGTRLTVT
not listed: [7] | peptide on HLA-A*02:01 [8]
recognises: all other assays above

B2: TCR1072 (TCR, V domains shown)
Valpha: RKEVEQDPGPFNVPEGATVAFNCTYSNSASQSFFWYRQDCRKEPKLLMSVYSSGNEDGRFTAQLNRASQYISLLIRDSKLSDSATYLCVVTGTGGFKTIFGAGTRLFVKA
Vbeta: GEEVAQTPKHLVRGEGQKAKLYCAPIKGHSYVFWYQQVLKNEFKFLISFQNENVFDETGMPKERFSAKCLPNSPCSLEIQATKLEDSAVYFCASSSMSIAAGNTGELFFGEGSRLTVL
recognises: [7] | [2] | peptide on HLA-A*02:01 [8]
